The Human Domainome abundance scans (Beltran et al. 2025)
± gives the uncertainty stated by the source.

B1: KAT8 regulatory NSL complex subunit 2, residues 28 to 91; numbered along this chain, Q9H9L4 (parent)
chain: CAFTHRPCSHPRLEGQEFCIKHILEDKNAPFKQCSYISTKNGKRCPNAAPKPEKKDGVSFCAEH

Variants of: B1
Assay: abundance fitness (aPCA) (normalised: wild type 0, dead -1); higher = more abundant; growth selection in yeast, the domain comes from the species named
Conditions: Homo sapiens

Variant	abundance fitness
S59H	-0.157 ± 0.15
S59F	-0.062 ± 0.083
S59V	-0.095 ± 0.091
P11M	-0.092 ± 0.058
P11R	-0.092 ± 0.051
H5Y	-0.151 ± 0.093
H5Q	0.011 ± 0.063
H5M	-0.012 ± 0.081
H5W	-0.193 ± 0.081
H5P	-0.146 ± 0.095
H5G	-0.017 ± 0.056
D26F	-0.245 ± 0.067
D26V	-0.16 ± 0.068
D26M	-0.195 ± 0.063
D26S	-0.117 ± 0.058
D26T	-0.069 ± 0.083
D26A	-0.084 ± 0.063
A49H	-0.147 ± 0.11
A49T	-0.005 ± 0.087
A49V	0.076 ± 0.078
N28V	-0.121 ± 0.056
N28M	-0.107 ± 0.079
P46D	-0.155 ± 0.075
P46L	-0.079 ± 0.042

Variant	abundance fitness
P46S	-0.049 ± 0.04
P46Q	-0.1 ± 0.1
P46V	-0.069 ± 0.068
P46Y	-0.105 ± 0.065
P46C	-0.065 ± 0.056
P46M	-0.1 ± 0.074
C45W	-0.79 ± 0.056
C45F	-0.609 ± 0.096
C45L	-0.441 ± 0.046
C45N	-0.398 ± 0.084
C45P	-0.561 ± 0.078
C45Y	-0.671 ± 0.1
C19F	-1.16 ± 0.37
C19E	-1 ± 0.08
C19S	-0.851 ± 0.067
C19M	-1.08 ± 0.091
L24N	-0.348 ± 0.084
L24F	-0.195 ± 0.088
L24S	-0.12 ± 0.055
L24I	-0.2 ± 0.078
L24P	-0.134 ± 0.1
L24A	-0.144 ± 0.07
L24Q	-0.147 ± 0.067
I20K	-0.195 ± 0.084

Variant	abundance fitness
I20D	-0.208 ± 0.13
I20W	-0.201 ± 0.064
I20T	-0.2 ± 0.082
I20G	-0.104 ± 0.048
I20L	-0.057 ± 0.042
Q33P	-0.036 ± 0.063
Q33T	0.017 ± 0.099
Q33Y	-0.071 ± 0.1
Q33A	0.011 ± 0.061
Q33C	-0.255 ± 0.14
S38P	-0.028 ± 0.067
S38A	-0.002 ± 0.058
S38M	-0.159 ± 0.1
S38K	-0.084 ± 0.11
S38Y	-0.065 ± 0.1
S38C	-0.026 ± 0.076
S38R	-0.06 ± 0.049
S38T	-0.104 ± 0.064
S38H	-0.111 ± 0.085
C1R	-0.545 ± 0.14
C1S	-0.358 ± 0.072
C1V	-0.865 ± 0.094
C1T	-0.89 ± 0.29
C1W	-0.837 ± 0.12

Variant	abundance fitness
A48Q	-0.238 ± 0.058
A48L	-0.16 ± 0.046
A48Y	-0.167 ± 0.086
A48I	-0.204 ± 0.065
A48E	-0.28 ± 0.074
N47Y	-0.132 ± 0.083
N47P	-0.511 ± 0.073
N47Q	0.061 ± 0.079
N47K	-0.076 ± 0.067
N47G	-0.076 ± 0.073
N47F	0.006 ± 0.086
C34K	-0.484 ± 0.1
C34G	-0.339 ± 0.063
C34H	-0.453 ± 0.092
C34V	-0.541 ± 0.066
C34Q	-0.41 ± 0.12
C34N	-0.33 ± 0.08
P7K	-0.123 ± 0.073
P7E	-0.063 ± 0.078
P7Q	-0.072 ± 0.062
P7H	-0.133 ± 0.14
P7G	-0.063 ± 0.091
P7R	-0.003 ± 0.058
P7F	-0.121 ± 0.12

Variant	abundance fitness
K27V	-0.104 ± 0.062
K27S	-0.093 ± 0.049
K27F	-0.3 ± 0.079
K27D	-0.172 ± 0.097
K27E	-0.079 ± 0.074
K27I	-0.091 ± 0.063
K27Q	-0.149 ± 0.095
Y36Q	-0.078 ± 0.11
Y36L	-0.156 ± 0.05
Y36T	-0.054 ± 0.066
P50I	-0.184 ± 0.078
P50E	0.095 ± 0.2
P50F	-0.135 ± 0.062
P50A	-0.213 ± 0.082
P50R	-0.106 ± 0.069
P50S	-0.104 ± 0.054
P50W	-0.287 ± 0.098
P50L	-0.131 ± 0.069
L13S	-0.331 ± 0.067
L13M	-0.048 ± 0.11
L13W	-0.315 ± 0.12
L13E	-0.334 ± 0.12
L13I	-0.145 ± 0.13
L13T	-0.308 ± 0.082

Variant	abundance fitness
F31R	-0.203 ± 0.059
F31L	-0.188 ± 0.052
F31I	-0.391 ± 0.13
F31N	-0.323 ± 0.094
F31A	-0.197 ± 0.046
P30F	-0.368 ± 0.067
P30I	-0.162 ± 0.13
P30V	-0.256 ± 0.068
P30K	-0.156 ± 0.1
P30H	-0.253 ± 0.093
P30M	-0.261 ± 0.084
P30S	-0.136 ± 0.052
H22M	-1.16 ± 0.1
H22S	-0.729 ± 0.061
H22Y	-1.07 ± 0.16
H22K	-0.678 ± 0.087
H22W	-1.4 ± 0.2
H22Q	-0.506 ± 0.12
H22T	-0.877 ± 0.086
H22A	-0.769 ± 0.053
F18C	-0.334 ± 0.062
F18L	-0.139 ± 0.052
F18D	-0.547 ± 0.097
F18T	-0.408 ± 0.053

Variant	abundance fitness
F18E	-0.622 ± 0.092
F18H	-0.454 ± 0.13
F18N	-0.61 ± 0.1
F18V	-0.509 ± 0.062
V58Y	-0.046 ± 0.075
V58I	-0.048 ± 0.074
V58N	-0.178 ± 0.091
V58M	-0.018 ± 0.11
V58R	-0.082 ± 0.096
V58K	-0.037 ± 0.14
R12E	-0.674 ± 0.13
R12Q	-0.561 ± 0.25
R12V	-0.066 ± 0.08
R12M	-0.47 ± 0.18
R12W	-1.22 ± 0.19
R12Y	-0.787 ± 0.082
R12T	-0.103 ± 0.067
R12G	-0.652 ± 0.074
R12N	-0.279 ± 0.084
S9I	0.016 ± 0.12
S9C	-0.123 ± 0.08
S9P	-0.174 ± 0.066
S9N	-0.313 ± 0.1
